{"source": "patent US5597798A", "about": "“Taxol and epidermal growth factor used to enhance treatment of ovarian cancer” (The Regents of the University of California, priority 1994, dated 1997)", "molecules": {"B1": {"name": "EGF: Epidermal Growth Factor; murine EGF (Sigma) in clonogenic assays, 125I-labelled human recombinant EGF in binding assays (protein, UniProt P01133 23-1207, looked up)", "Pro-epidermal growth factor": "PQHWSCPEGTLAGNGNSTCVGPAPFLIFSHGNSIFRIDTEGTNYEQLVVDAGVSVIMDFHYNEKRIYWVDLERQLLQRVFLNGSRQERVCNIEKNVSGMAINWINEEVIWSNQQEGIITVTDMKGNNSHILLSALKYPANVAVDPVERFIFWSSEVAGSLYRADLDGVGVKALLETSEKITAVSLDVLDKRLFWIQYNREGSNSLICSCDYDGGSVHISKHPTQHNLFAMSLFGDRIFYSTWKMKTIWIANKHTGKDMVRINLHSSFVPLGELKVVHPLAQPKAEDDTWEPEQKLCKLRKGNCSSTVCGQDLQSHLCMCAEGYALSRDRKYCEDVNECAFWNHGCTLGCKNTPGSYYCTCPVGFVLLPDGKRCHQLVSCPRNVSECSHDCVLTSEGPLCFCPEGSVLERDGKTCSGCSSPDNGGCSQLCVPLSPVSWECDCFPGYDLQLDEKSCAASGPQPFLLFANSQDIRHMHFDGTDYGTLLSQQMGMVYALDHDPVENKIYFAHTALKWIERANMDGSQRERLIEEGVDVPEGLAVDWIGRRFYWTDRGKSLIGRSDLNGKRSKIITKENISQPRGIAVHPMAKRLFWTDTGINPRIESSSLQGLGRLVIASSDLIWPSGITIDFLTDKLYWCDAKQSVIEMANLDGSKRRRLTQNDVGHPFAVAVFEDYVWFSDWAMPSVMRVNKRTGKDRVRLQGSMLKPSSLVVVHPLAKPGADPCLYQNGGCEHICKKRLGTAWCSCREGFMKASDGKTCLALDGHQLLAGGEVDLKNQVTPLDILSKTRVSEDNITESQHMLVAEIMVSDQDDCAPVGCSMYARCISEGEDATCQCLKGFAGDGKLCSDIDECEMGVPVCPPASSKCINTEGGYVCRCSEGYQGDGIHCLDIDECQLGEHSCGENASCTNTEGGYTCMCAGRLSEPGLICPDSTPPPHLREDDHHYSVRNSDSECPLSHDGYCLHDGVCMYIEALDKYACNCVVGYIGERCQYRDLKWWELRHAGHGQQQKVIVVAVCVVVLVMLLLLSLWGAHYYRTQKLLSKNPKNPYEESSRDVRSRRPADTEDGMSSCPQPWFVVIKEHQDLKNGGQPVAGEDGQAADGSMQPTSWRQEPQLCGMGTEQGCWIPVSSDKGSCPQVMERSFHMPSYGTQTLEGGVEKPHSLLSANPLWQQRALDPPHQMELTQ", "modifications": "Pro-epidermal growth factor 125I-labelled; murine EGF also used"}}, "key": {"[1]": {"test_system": "2008 human ovarian carcinoma cells", "assay": "Colony forming assay, effect of EGF on sensitivity to cytotoxic agents", "format": "cell-based", "conditions": "for survival, % of control cells treated with DDP alone: DDP and EGF together"}, "2008/C13* cells [2]": {"test_system": "2008/C13* cells", "assay": "Morphologic changes induced by EGF (light microscopy of colonies)", "format": "cell-based, human", "conditions": "2 h EGF exposure", "excerpt": "(§1) The colonies formed by the COLO 316 cells appeared somewhat denser."}, "2008 cells [3]": {"test_system": "2008 cells", "assay": "Morphologic changes induced by EGF (light microscopy of colonies)", "format": "cell-based, human", "conditions": "10 nM EGF for 2 hs, inspected after 10 days", "excerpt": "as §1"}, "COLO 316 cells [4]": {"test_system": "COLO 316 cells", "assay": "Morphologic changes induced by EGF (light microscopy of colonies)", "format": "cell-based, human", "conditions": "10 nM EGF for 2 hs, inspected after 10 days", "excerpt": "as §1"}, "2008 tumor xenografts": {"test_system": "2008 tumor xenografts", "assay": "Effect of EGF on cisplatin toxicity against tumor xenografts in athymic mice", "format": "in vivo, athymic mice (nu/nu)", "procedure": "For these studies, 3 to 4 week old female athymic mice (nu/nu) from BALB/c origin were used which were supplied by Harlan Sprague Dawley, Inc. (Indianapolis, Ind.). The mice were kept in a laminar flow hood at 28° C. and fed standard mouse diet and water ad libitum.\nTumor xenografts were established from 2008 cells by harvesting confluent cell cultures by trypsinization and resuspending the cells in RPMI 1640 medium at 2.5×10^7 cells per ml. From this suspension, 0.2 ml aliquots containing 5×10^6 cells were injected s.c. on each shoulder of the athymic mice. In each mouse, two tumors were followed and tumor volumes were determined using the formula (length×width^2)/2 (Giavazzi et al., Cancer Res. 46:1928 (1986) and Tomayko & Reynolds Cancer Chemother. Pharmacol. 24:148 (1989)).\nIn all groups, treatment was administered 24 hours after the inoculation with tumor cells.\nTumor growth of each tumor in each animal was expressed as plot of in(tumor volume) as a function of time. The regression line of the in(tumor volume) versus time plot was calculated by using the method of least squares. The intercept and slope were obtained and used to calculate the time each tumor required to reach an arbitrarily defined volume of 1 ml. This volume was chosen because most tumors in all treatment groups reached this endpoint. For comparisons between two groups the unpaired Student's T-test was used. […]"}, "[5]": {"design": "species or system mice", "conditions": "mouse, in vivo", "procedure": "For nephrotoxicity studies, 72 h after treatment, mice were anesthetized and 1.5 ml of blood was sampled by cardiac puncture. Plasma creatinine and blood urea nitrogen (BUN) levels were used to measure toxicity and were determined by an enzymatic method previously described (Kulpman et al., J. Clin. Chem. Clin. Biochem. 28(11): 835 (1990))."}, "2008/C13* cells [6]": {"test_system": "2008/C13* cells", "assay": "Growth rate under EGF exposure", "format": "cell-based, human", "conditions": "2 h or continuous exposure to 10 nM EGF", "excerpt": "(§2) During the first 5 days after cell seeding, cell growth was exponential. The doubling times of the 2008, 2008/C13*, and COLO 316 cells were 27.9, 28.2, and 29.2 hs, respectively."}, "2008 cells [7]": {"test_system": "2008 cells", "assay": "Growth rate under EGF exposure", "format": "cell-based, human", "conditions": "2 h or continuous exposure to 10 nM EGF", "excerpt": "as §2"}, "COLO 316 cells [8]": {"test_system": "COLO 316 cells", "assay": "Growth rate under EGF exposure", "format": "cell-based, human", "conditions": "2 h or continuous exposure to 10 nM EGF", "excerpt": "as §2"}, "[9]": {"conditions": "2 h exposure to EGF (1 h before and 1 h concurrent with DDP)"}, "[10]": {"conditions": "delay between 1 h EGF pre-treatment and 1 h DDP exposure"}}}
{"molecule": "B1", "values": [{"measurement": "EGF concentration of maximal enhancement of DDP sensitivity", "setting": "[1]; [9]", "value": "about 10 nM"}, {"measurement": "lowest EGF concentration that enhanced sensitivity to DDP", "setting": "[1]; [9]", "value": 0.4, "unit": "nM"}, {"measurement": "survival, % of control cells treated with DDP alone", "setting": "[1]; no cyclohexamide", "value": "31±10", "unit": "%"}, {"measurement": "survival, % of control cells treated with DDP alone", "setting": "[1]; pretreatment with cyclohexamide inhibiting protein synthesis by 90%", "value": "47±8", "unit": "%"}, {"measurement": "effect of further increase in EGF concentration", "setting": "[1]; EGF up to 100 nM", "value": "no additional change in sensitivity to DDP"}, {"measurement": "loss of EGF mediated increase in sensitivity to DDP", "setting": "[1]; [10]", "value": "largely disappeared by 24 hs"}, {"measurement": "persistence of EGF mediated increase in sensitivity to DDP", "setting": "[1]; [10]", "value": "at least 6 hs"}, {"measurement": "morphologic response", "setting": "2008/C13* cells [2]", "value": "showed no morphologic response"}, {"measurement": "morphologic change of colonies", "setting": "2008 cells [3]", "value": "marked scattering of the colonies and the formation of prominent dendritic processes"}, {"measurement": "morphologic change of colonies", "setting": "COLO 316 cells [4]", "value": "marked scattering of the colonies and the formation of prominent dendritic processes"}, {"measurement": "time required for tumors to reach a volume of 1 ml (in words)", "setting": "2008 tumor xenografts; 1 mg/kg EGF s.c. alone or with 15 mg/kg cisplatin i.p.", "value": "no effect on the time required for tumors to reach a volume of 1 ml"}, {"measurement": "final tumor volume", "setting": "2008 tumor xenografts; 1 mg/kg EGF s.c. and/or 15 mg/kg cisplatin i.p., 24 hours after inoculation", "value": "no effect on the final tumor volume"}, {"measurement": "serum creatinine or BUN", "setting": "[5]", "value": "Neither treatment with EGF alone, cisplatin alone, or EGF plus cisplatin resulted in statistically significant increases in serum creatinine or BUN"}, {"measurement": "effect on growth rate", "setting": "2008/C13* cells [6]", "value": "Neither a 2 h nor a continuous exposure to 10 nM EGF had any demonstrable impact on the growth rate"}, {"measurement": "effect on growth rate", "setting": "2008 cells [7]", "value": "Neither a 2 h nor a continuous exposure to 10 nM EGF had any demonstrable impact on the growth rate"}, {"measurement": "effect on growth rate", "setting": "COLO 316 cells [8]", "value": "Neither a 2 h nor a continuous exposure to 10 nM EGF had any demonstrable impact on the growth rate"}]}
